According to patent CN111704670A (MABWELL SHANGHAI BIOSCIENCE CO LTD; JIANGSU MABWELL NEW …, dated 2020):

Biological target: T1, RANKL-兔Fc (rabbit, UniProt O14788 140-317 (human entry), limits assumed)
T1 sequence (looked up): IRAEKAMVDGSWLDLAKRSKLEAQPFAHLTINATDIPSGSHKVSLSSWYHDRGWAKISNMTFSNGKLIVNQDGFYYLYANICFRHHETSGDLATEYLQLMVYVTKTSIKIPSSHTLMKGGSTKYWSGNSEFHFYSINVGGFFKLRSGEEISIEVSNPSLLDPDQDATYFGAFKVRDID
Experiment: cell-based or functional assay

| Binder | 异构体生物活性 IC50 [ng/mL] | 生物学活性量效曲线 IC50 (RAW264.7 TRAP/pNPP assay); 原液 lot 20131201 [ng/ml] | 生物学活性量效曲线 IC50 (RAW264.7 TRAP/pNPP assay); 原液 lot 20140201 [ng/ml] | 生物学活性量效曲线 IC50 (RAW264.7 TRAP/pNPP assay); 工作参考品 lot 20140301, plate with Denosumab [ng/ml] | 生物学活性量效曲线 IC50 (RAW264.7 TRAP/pNPP assay); 工作参考品 lot 20140301, plate with lot 20131201 [ng/ml] | 生物学活性量效曲线 IC50 (RAW264.7 TRAP/pNPP assay); 工作参考品 lot 20140301, plate with lot 20140201 [ng/ml] |
| --- | --- | --- | --- | --- | --- | --- |
| 重组人源抗RANKL抗体IgG2型二硫键异构体IgG2-B型 (antibody, V domains shown) VH: EVQLLESGGGLVQPGGSLRLSCAASGFTFSSYAMSWVRQAPGKGLEWVSGITGSGGSTYYADSVKGRFTISRDNSKNTLYLQMNSLRAEDTAVYYCAKDPGTTVIMSWFDPWGQGTLVTVSS VL: EIVLTQSPGTLSLSPGERATLSCRASQSVRGRYLAWYQQKPGQAPRLLIYGASSRATGIPDRFSGSGTDFTLTISRLEPEDFAVFYCQQYGSSPRTFGQGTKVEIKR | 3 |  |  |  |  |  |
| 重组人源抗RANKL单克隆抗体IgG2型 (TK006) (antibody, V domains shown) VH: EVQLLESGGGLVQPGGSLRLSCAASGFTFSSYAMSWVRQAPGKGLEWVSGITGSGGSTYYADSVKGRFTISRDNSKNTLYLQMNSLRAEDTAVYYCAKDPGTTVIMSWFDPWGQGTLVTVSS VL: EIVLTQSPGTLSLSPGERATLSCRASQSVRGRYLAWYQQKPGQAPRLLIYGASSRATGIPDRFSGSGTDFTLTISRLEPEDFAVFYCQQYGSSPRTFGQGTKVEIKR |  | 1.07 | 1.63 | 1.11 | 1.33 | 1.34 |
| 重组人源抗RANKL抗体IgG2型二硫键异构体IgG2-A型 (antibody, V domains shown) VH: EVQLLESGGGLVQPGGSLRLSCAASGFTFSSYAMSWVRQAPGKGLEWVSGITGSGGSTYYADSVKGRFTISRDNSKNTLYLQMNSLRAEDTAVYYCAKDPGTTVIMSWFDPWGQGTLVTVSS VL: EIVLTQSPGTLSLSPGERATLSCRASQSVRGRYLAWYQQKPGQAPRLLIYGASSRATGIPDRFSGSGTDFTLTISRLEPEDFAVFYCQQYGSSPRTFGQGTKVEIKR | 2.89 |  |  |  |  |  |
